Results: article PMC11018607, “A widely conserved protein Rof inhibits transcription termination factor Rho and promotes Salmonella virulence program” (Nature Communications, 2024)

Molecular target: T1, Transcription termination factor Rho (E. coli) (E. coli, UniProt P0AG30 1-419)
T1 construct: Transcription termination factor Rho, E. coli, expressed from pET24b-rho; no tag is mentioned; In the cryo-EM map density was absent for residues 280-284; also called EcRho; Rho hexamer; source: E. coli BL21(DE3) carrying pET24b-rho, purified (HiTrap Q, heparin, Superdex 200)
T1 sequence (P0AG30 whole entry, the tested form may be a part): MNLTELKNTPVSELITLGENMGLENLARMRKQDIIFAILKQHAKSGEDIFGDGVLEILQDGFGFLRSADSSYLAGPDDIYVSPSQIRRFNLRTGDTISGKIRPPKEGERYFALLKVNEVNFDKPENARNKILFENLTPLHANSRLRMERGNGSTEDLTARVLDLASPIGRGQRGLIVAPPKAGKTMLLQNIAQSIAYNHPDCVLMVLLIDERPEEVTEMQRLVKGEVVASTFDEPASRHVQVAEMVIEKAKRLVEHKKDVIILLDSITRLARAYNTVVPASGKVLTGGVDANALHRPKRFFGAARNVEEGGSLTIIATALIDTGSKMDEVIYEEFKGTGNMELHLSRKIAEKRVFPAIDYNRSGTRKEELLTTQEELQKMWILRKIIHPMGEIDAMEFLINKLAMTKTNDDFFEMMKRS
Assay: SEC; gel filtration of the complex assembled by mixing purified Rho and Rof at a ratio of 1:1
Settings: both partners purified

B1: Rof (Rho-off, YaeO), E. coli (natural protein)
chain: MNDTYQPINCDDYDNLELACQHHLMLTLELKDGEKLQAKASDLVSRKNVEYLVVEAAGETRELRLDKITSFSHPEIGTVVVSES
notes: Protein Rof (YaeO), E. coli, expressed from pET22b-rof; In the cryo-EM map density was absent for Rof residues 1-5; No removal of the tag is described; also called EcRof; source: E. coli BL21(DE3) transformed with pET22b-rof, purified (Ni-NTA, Superdex 200)
B1: binds.
